The target of one data set is Sp1 (UniProt P08047). Nature of the data set: cell_activity. As to conditions: luciferase induction in Drosophila cells.
The next data set addresses Sp3 (UniProt Q02447). Nature of the data set: cell_activity. The following applies: luciferase induction in Drosophila cells.

Chain of Sp1 (P08047 2-785): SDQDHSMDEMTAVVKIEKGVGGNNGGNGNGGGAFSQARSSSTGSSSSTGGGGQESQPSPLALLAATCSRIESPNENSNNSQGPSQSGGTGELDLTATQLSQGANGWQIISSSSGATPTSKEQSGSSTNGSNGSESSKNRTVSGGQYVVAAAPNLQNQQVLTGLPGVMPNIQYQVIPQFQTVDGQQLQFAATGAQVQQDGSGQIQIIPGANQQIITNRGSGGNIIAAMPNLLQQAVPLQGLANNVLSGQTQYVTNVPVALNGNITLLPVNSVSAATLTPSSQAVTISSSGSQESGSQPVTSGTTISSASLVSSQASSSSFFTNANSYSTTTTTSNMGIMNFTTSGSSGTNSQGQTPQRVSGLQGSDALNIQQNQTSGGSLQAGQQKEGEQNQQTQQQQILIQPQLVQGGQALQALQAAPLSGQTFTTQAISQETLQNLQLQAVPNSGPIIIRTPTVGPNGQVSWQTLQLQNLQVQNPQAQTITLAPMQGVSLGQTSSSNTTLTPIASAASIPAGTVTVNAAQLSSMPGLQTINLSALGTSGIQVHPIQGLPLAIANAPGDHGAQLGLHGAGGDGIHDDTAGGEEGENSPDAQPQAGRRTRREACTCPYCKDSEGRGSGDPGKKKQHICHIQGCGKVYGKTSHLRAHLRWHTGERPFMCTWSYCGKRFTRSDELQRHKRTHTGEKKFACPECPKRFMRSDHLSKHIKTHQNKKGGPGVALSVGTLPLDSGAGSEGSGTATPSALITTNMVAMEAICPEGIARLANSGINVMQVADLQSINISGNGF
Chain of Sp3 (Q02447 whole entry): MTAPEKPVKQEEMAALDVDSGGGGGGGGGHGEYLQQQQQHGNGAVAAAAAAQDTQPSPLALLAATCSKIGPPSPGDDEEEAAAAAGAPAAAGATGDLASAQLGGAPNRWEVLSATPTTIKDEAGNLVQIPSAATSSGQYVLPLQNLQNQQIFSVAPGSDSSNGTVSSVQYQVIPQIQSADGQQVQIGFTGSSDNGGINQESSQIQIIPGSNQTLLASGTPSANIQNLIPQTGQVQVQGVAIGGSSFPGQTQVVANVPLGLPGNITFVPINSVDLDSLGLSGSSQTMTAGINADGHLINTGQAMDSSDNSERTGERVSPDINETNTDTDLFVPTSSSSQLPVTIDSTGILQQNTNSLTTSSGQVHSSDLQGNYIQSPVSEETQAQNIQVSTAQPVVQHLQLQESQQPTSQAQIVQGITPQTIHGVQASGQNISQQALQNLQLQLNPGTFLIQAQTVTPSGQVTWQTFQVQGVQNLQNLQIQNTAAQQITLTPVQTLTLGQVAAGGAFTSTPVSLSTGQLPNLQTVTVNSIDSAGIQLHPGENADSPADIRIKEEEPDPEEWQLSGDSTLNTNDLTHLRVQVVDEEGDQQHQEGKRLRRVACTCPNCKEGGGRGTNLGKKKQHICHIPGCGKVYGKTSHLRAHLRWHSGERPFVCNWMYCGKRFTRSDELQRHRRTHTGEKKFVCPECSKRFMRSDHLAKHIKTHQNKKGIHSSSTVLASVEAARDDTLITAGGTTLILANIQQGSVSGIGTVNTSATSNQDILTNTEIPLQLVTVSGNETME

As to CD11c promoter -196/+30 (luc reporter), the values for the activity with Sp1 and with Sp3 were 19.5 fold and 18.9 fold, respectively. In turn, “CTGTATTGTTGTACAGAACTGCAGTTTGTTCTTTGTTATTTATTGTAAAGACAGGGTCTGGCTATGTTGCCTAGGCTGGTCTCGAACTGTTGGCCTCAAGCAATCCACCTGCCAAGCTCTGGGACCACAGGCATGAGCCATGGCATCTGATCKGTAGTTTGATCTTATTTCTTGCTGAGTAGTAGCCCATGGCATGACTTTATTATTTTGGGTGTCCATTCTCCTCTGGAGGGGCTCTGCTTTTTGAAACCACACCCTGGCCTAGCTCCCCTTCTCCCTGCCTCTCTGCAGGCTCACATCCACATGCCAAGACCTCTGCAGCCATTCTGCTTCCTGTCCTTCCACTCCTGTGGGACCTCAGAGAGCTACGGGGCTCCCTGGGTACCAACTGGCTCCTGAGGCCTGGGGGAGGGTGGTCTTCTGGGAGAAGGAAGCCAGGTCCCTGCAGGTTGTGGAGGGGGACAGAATGAGGGTTTTTCCCCAGGATGTTGTTGGCCCCTGCCCCCACTTCTGTTCCATAATTAACCACGCCCCTCCTACCCACTGTGCCCCTCTTCCTGCTGTGTGGAGGCCCTGAATCATTATTTTAACTACCCCCTGGGAGGGTGAGCACCTTCTGTGCTCTGTCCCCAACCTTCCACTTCCCCTCAACGCGCTGCTCAGGG (double strand) [CD11d promoter -591/+74 (luc reporter)]” gave an activity in the data set with Sp1 of 4.1 fold.
